Test results reported in the supplement of paper PMC6757056.
± gives the standard deviation of the averaged measurements.

B1: library; a variant is named by its letters at N, in order (parent)
chain: GCUGUCACCGGUGCUUGGUACGUUAUAUUCAGCCGGUCUGAUGAGUCUNNNNNNAGACGAAACAGC

Tests used:
(6R,S)-folinic acid [1] = variants of: B1; assay: FACS-Seq fitted mean relative fluorescence mCherry/BFP without ligand (log10 relative fluorescence); HEK293T overexpressing SLC46A1; higher = higher reporter protein expression; details: without (6R,S)-folinic acid; ligand present: no
Procedure, shortened: (§1)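 The ribozyme switch sat in an mCherry reporter, delivered by lentivirus into HEK293T libraries along with an EF1α-BFP marker. Enriched cells were incubated 48 h with or without ligand, sorted into 6 bins by mCherry/BFP, and bin genomic DNA was PCR-amplified, barcoded and MiSeq-sequenced. Fluorescence equals the fitted normal mean of the bin counts after normalization. Those log10(mCherry/BFP) means were scaled to five spiked-in control ribozymes.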

(6R,S)-folinic acid [2] = variants of: B1; assay: normalized RNA/DNA level without ligand (relative to sTRSVctl = 100) (log10 (% of sTRSVctl)); HEK293T overexpressing SLC46A1; higher = less ribozyme self-cleavage, higher mRNA level; details: without (6R,S)-folinic acid; ligand present: no
Procedure, shortened: (§2)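 Only sequences with at least 100 DNA reads were analyzed, from HEK293T cells transfected with 4 µg per 6-well well of ribozyme switch library plasmids 72 h before RNA extraction with EDTA. Any ligand was added 1 h before transfection. RNA level was defined as RNA over DNA reads, normalized to a spiked-in non-cleaving sequence or to the top sequences, then scaled and log-transformed. The top set was 25 sequences, and the scaling was ×100 followed by log10.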

(6R,S)-folinic acid [3] = variants of: B1; assay: FACS-Seq fitted mean relative fluorescence mCherry/BFP with ligand (log10 relative fluorescence); HEK293T overexpressing SLC46A1; ligand concentration (+) FACS-Seq: 6 mM; higher = higher reporter protein expression; details: with (6R,S)-folinic acid; ligand present: yes
Procedure, shortened: as §1

(6R,S)-folinic acid [4] = variants of: B1; assay: normalized RNA/DNA level with ligand (relative to sTRSVctl = 100) (log10 (% of sTRSVctl)); HEK293T overexpressing SLC46A1; ligand concentration (+) RNA-Seq: 6 mM; higher = less ribozyme self-cleavage, higher mRNA level; details: with (6R,S)-folinic acid; ligand present: yes
Procedure, shortened: as §2

| Variant | FACS-Seq fitted mean (log10) ((6R,S)-folinic acid [1]) | normalized RNA/DNA level without ligand (log10) ((6R,S)-folinic acid [2]) | FACS-Seq fitted mean (log10) ((6R,S)-folinic acid [3]) | normalized RNA/DNA level with ligand (log10) ((6R,S)-folinic acid [4]) |
| --- | --- | --- | --- | --- |
| AAAAAC | 0.164 ± 0.051 | 1.985 ± 0.015 | -0.16 ± 0.076 | 1.99 ± 0.034 |
| AACCUA | -0.147 ± 0.17 | 2.0051 ± 8.4e-05 | -0.514 ± 0.18 | 2.02 ± 0.034 |
| GUCGAU | 0.179 ± 0.051 | 1.986 ± 0.015 | 0.225 ± 0.17 | 2.02 ± 0.026 |
| CAAAAU | -0.131 ± 0.018 | 1.955 ± 0.0057 | -0.505 ± 0.1 | 1.98 ± 0.032 |
| CAAAAC | 0.474 ± 0.076 | 1.9999 ± 0.0015 | 0.589 ± 0.49 | 1.99 ± 0.055 |
| GCAUAG | 0.335 ± 0.0092 | 1.966 ± 0.017 | 0.466 ± 0.13 | 2.02 ± 0.053 |
| CGAAUA | 0.314 ± 0.065 | 1.954 ± 0.0097 | 0.45 ± 0.14 | 1.978 ± 0.018 |
| AACAUG | 0.494 ± 0.1 | 1.96 ± 0.0024 | 0.6524 ± 0.0008 | 2.02 ± 0.022 |
| AACAUC | -0.902 ± 0.27 | 2.061 ± 0.019 | -0.887 ± 0.24 | 2.06 ± 0.065 |
| GCGAAC | 0.252 ± 0.064 | 1.951 ± 0.002 | 0.261 ± 0.15 | 2.04 ± 0.027 |
| GCGAAU | 0.583 ± 0.062 | 2.014 ± 0.0084 | 0.3524 ± 0.00074 | 2.047 ± 0.016 |
| ACAUAC | 0.125 ± 0.085 | 1.992 ± 0.0001 | 0.387 ± 0.078 | 1.99 ± 0.021 |
| ACAGAC | 0.355 ± 0.071 | 2.0094 ± 0.0017 | 0.356 ± 0.3 | 2.021 ± 0.0097 |
| ACAGAA | 0.191 ± 0.02 | 1.947 ± 0.0015 | 0.0345 ± 0.24 | 2 ± 0.024 |
| UCCAAG | 0.322 ± 0.11 | 1.815 ± 0.0067 | 0.489 ± 0.12 | 1.992 ± 0.006 |
| AAGUUA | 0.382 ± 0.14 | 1.973 ± 0.0048 | 0.443 ± 0.016 | 2.01 ± 0.031 |
| UGAGAU | 0.457 ± 0.23 | 1.83 ± 0.043 | 0.572 ± 0.015 | 1.98 ± 0.041 |
| AAAUUC | 0.629 ± 0.14 | 2.03 ± 0.0039 | 0.471 ± 0.059 | 2.018 ± 0.016 |

| Variant | FACS-Seq fitted mean (log10) ((6R,S)-folinic acid [1]) | normalized RNA/DNA level without ligand (log10) ((6R,S)-folinic acid [2]) | FACS-Seq fitted mean (log10) ((6R,S)-folinic acid [3]) | normalized RNA/DNA level with ligand (log10) ((6R,S)-folinic acid [4]) |
| --- | --- | --- | --- | --- |
| UACGGG | 0.198 ± 0.013 | 1.704 ± 0.0067 | 0.717 ± 0.3 | 1.97 ± 0.053 |
| UACGGA | 0.537 ± 0.046 | 1.8816 ± 0.00018 | 0.817 ± 0.11 | 2 ± 0.029 |
| UUCUGG | 0.429 ± 0.029 | 1.887 ± 0.0036 | 0.696 ± 0.12 | 2.03 ± 0.037 |
| AAUUUU | 0.217 ± 0.14 | 2.04 ± 0.029 | 0.309 ± 0.3 | 2.01 ± 0.025 |
| UGGAUU | 0.509 ± 0.13 | 1.9762 ± 0.00085 | 0.582 ± 0.21 | 2.03 ± 0.023 |
| UUCUAG | 0.502 ± 0.03 | 1.879 ± 0.0029 | 0.872 ± 0.074 | 1.99 ± 0.044 |
| AUGACU | 0.261 ± 0.032 | 2.01 ± 0.025 | 0.313 ± 0.27 | 2.02 ± 0.03 |
| UGCGUG | -0.00857 ± 0.093 | 1.6768 ± 0.0013 | 0.36 ± 0.1 | 1.95 ± 0.045 |
| AACUUG | 0.321 ± 0.0087 | 1.94 ± 0.0095 | 0.658 ± 0.031 | 1.996 ± 0.0088 |
| GUGGGC | 0.414 ± 0.04 | 1.788 ± 0.0052 | 0.738 ± 0.17 | 1.98 ± 0.024 |
| UGUUGA | 0.32 ± 0.026 | 1.837 ± 0.015 | 0.463 ± 0.13 | 2.01 ± 0.035 |
| UACCUC | 0.402 ± 0.35 | 2.052 ± 0.0094 | 0.585 ± 0.43 | 2.04 ± 0.049 |
| UUUACU | 0.0671 ± 0.017 | 2.032 ± 0.0085 | -0.0776 ± 0.03 | 2.033 ± 0.013 |
| GUCUGC | 0.325 ± 0.12 | 2.025 ± 0.0038 | 0.295 ± 0.085 | 2.07 ± 0.053 |
| AGUCAA | 0.156 ± 0.066 | 1.962 ± 0.0074 | 0.225 ± 0.046 | 1.96 ± 0.053 |
| GUGACA | 0.277 ± 0.2 | 1.989 ± 0.003 | 0.446 ± 0.1 | 1.99 ± 0.05 |
| GAGCAU | 0.407 ± 0.06 | 1.979 ± 0.015 | 0.546 ± 0.41 | 2.016 ± 0.015 |
| CAAUAG | 0.376 ± 0.018 | 1.942 ± 0.0058 | 0.641 ± 0.16 | 2.011 ± 0.0065 |
